Columns and labels:
[1] = target: Dengue virus serotype 2 (ET300 strain) non-structural protein 1, untagged recombinant, expressed in suspension HEK293 cells (Dengue virus serotype 2, strain ET300); assay: SEC; concentrated (about 10-fold, 520 μg/mL) NS1 expression medium, 0.5 mL on Superdex 200 increase 10/300 GL in PBS at 0.75 mL per min; NS1 in 0.25 mL fractions by ELISA and immunoblot
[2] = target: Dengue virus serotype 2 (ET300 strain) non-structural protein 1, C-terminally His-tagged, purified (Dengue virus serotype 2, strain ET300); assay: SEC; purified His-tagged NS1, 0.5 mL on Superdex 200 increase 10/300 GL in PBS; fractions analysed by NS1 ELISA

Substance	stoichiometry N [1]	stoichiometry N [2]
Dengue virus serotype 2 (ET300 strain) non-structural protein 1, untagged recombinant, expressed in suspension HEK293 cells (natural protein)	6	
Dengue virus serotype 2 (ET300 strain) non-structural protein 1, C-terminally His-tagged, purified (natural protein)		6

Reference: article PMC12622831
